According to the supplement of paper PMC9170038:

Test system: K4 kissing-loop RNA reporter
Test: apparent KD of K4 kissing-loop reporter; higher = weaker reporter binding
Conditions: Eterna round: R107
Experimental: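 RNA-MaP round R107: designed RNA switches with theophylline, tryptophan, arginine or FMN aptamers are transcribed on-chip within common flanks. They are titrated with a labelled K4 kissing-loop RNA reporter in RNA-MaP buffer (100 mM Tris pH 7.5, 80 mM KCl, 4 mM MgCl2), without ligand or with the indicated ligand. Median apparent KD per design.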

[1] = input ligand: theophylline 20 uM
[2] = input ligand: tryptophan 2.4 mM
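Further: bound reporter read as fluorescence of individual clusters on recovered sequencing chips by microscopy, with normalized cluster intensities fitted with a binding model.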

Sequence	apparent KD of K4 kissing-loop reporter (input ligand: FMN 200 uM) [nM]	apparent KD of K4 kissing-loop reporter (input ligand: arginine 13.2 mM) [nM]	apparent KD of K4 kissing-loop reporter (input ligand: none) [nM]	apparent KD of K4 kissing-loop reporter [1] [nM]	apparent KD of K4 kissing-loop reporter [2] [nM]
UGUGAACAAAAGUAGAGUGGACCACUAUAGCGAGGACCGGUACGGCCGCCACUCGUACAUGUAUUCAGUGAUGUUGAAAUGAGCU [whbob_EX_Tryp_A_t15]	200	319	268	362	150
UGUGAACAAAAGUAGAGUGGACCACUAUAGCGAGGACCGGUACGGCCGCCACUCGUAUAUAAAUUCAGUGAUGUUGAAAAGAGCU [Exclusion Tryptophan A GF1]	175	283	215	260	149
UGUGAGCUGUCGACAAAAGUCGACUAAAACGAGGAUAUGACGAAAGUCAGAAGGCGUCAAUAAUGGAGUGAUGUUCCUGCUCACU [FmnA 9 #SwitchBubble #K4Late]	256	404	552	453	401
UGUGGAGAAUAUGAUACCAGCAGUGAGAGAGAGGAAGUAUAGUGAUGUUAUAUGAGAGAAUGCCCUUGGCAGCAUAUGUAGUAGG [SSTheophylB.G]	209	162	207	208	188
UGUGUUUACCUGACUCAGUGAUGUUGAGAAGGAGCGUGCUAAAGCACAGGUAGGUCGCUCAACCUAAAUUCAGGUGAGCACUAAA	350	258	312	326	257
UGUUUUUACUGAAGGAGCGGCAAUUGAUACGUAGAUAUAGUGAUGUUAUAUAAGAUAGAGAGCCAGGUAGGUCGCAGAGUGUAUC [ExArgB.aB]	217	188	207	172	213
UUACUACCCAGUGAUGUUGGGUAGCGGCGGCGAGGACCGGUACGGCCGCCACUCGGCGCACGGGAGUGAUGUUCCUACCGUUAGG [Same state Tryptophan A GF 8]	514	455	604	747	294
UUAGUCAGAUUAUUAUUAGCCUGCGAGACUAAGGAUAUCCGAAUUCGGAGAAGGUAGUGAUGUUACUUUGGCAGGCACUGACAUU [AK8 Exc FMN A]	890	611	727	643	576
UUAGUCUAGAGAAGGAGCGAGUGAUGUUCGCAGCCCAAAUAAUAAUAAUAAUAAGGGCAUCCUCAGGUAGGUCGCUCUAGACAUU [AK5 Exc Arginine B]	335	290	334	354	292
UUAGUCUAGAGAAGGAGCGAGUGAUGUUCGCAUGCUAUGAUGAAUUCAUCAUAGUUUAAUCCUCAGGUAGGUCGCUCUAGACAUU [AK7 Exc Arginine B]	427	339	418	355	350
UUAGUUGAAAGUGAUACCAGACGAGUGAAGGGAAGAAAUUAAGUUGGAGUGAUGUUCCGCGUCCCUUGGCAGCACUUUGUAAUUU [Exclusion Theophylline B GF 22]	135	151	125	161	121
UUCCACCGAGAAGGAUAUUAUGCUGGACUUGUUUAAGUGUUAAAUAGUGAUGUUAUUUGAUCGGAAUAAGAAGGUCUCAAGUUGA [theeternabot_sameState_KL_FMN_B_44]	155	131	145	142	119
UUGAGCCGGACCGAAGUCCGGCUCUGCGAGCGAGGACCGGUACGGCCGCCACUCGGUGCAGUGAUGUUGCAUGGCCGCAAGGCCG [#2 Exclusion - Tryptophan A Attempt #8 (HarryS)]	424	286	418	339	401
UUGAGUGAUGUUCAAUUAAUGUGCAACGAUACCAGCUCAUAUGCUAGCCCUUGGCAGCGUGGUAACGUAAUUUUAUCAAAUGAUA [theeternabot_exclusion_KL_Theo_A_39]	232	199	198	205	145
UUGUCCGGGUGAUGGUCAUCACGUGGCGGGCGAGGACCGGUACGGCCGCCACUCGACUUUGCAGUGAUGUUGCAAACCGGACAAU [Exclusion - Tryptophan A (Freestyle 23)]	231	174	192	224	210
UUGUUUGGUUGAGAGGUUGGGCGAGAUGAUACCAGUAGAGAAGAGUACCCUUGGCAGCAUAGGAAAGAUAUAGUGAUGUUGUAUA [SSTheophA.Q]	354	313	357	165	309
UUGUUUUACUGAAGGAGCGGCAAUUGAUACGUAGAUAUAGUGAUGUUAUAUAAGAUAGAGAGCCAGGUAGGUCGCAGAUUUUUUU [ExArgB.V]	164	157	144	185	118
UUUAGGAGCGGUGUUGAUUAGGGAGCGGAAGGAGCGCCGAUUAUGGCAGGUAGGUCGCCGGAAUGUAGUGAUGUUGCAUAGAGGG [ExArgA.V]	214	186	185	154	166
UUUAUAAAGUCGGCCGCCACUGGAUUUAUGUUUGUUUCGUCUGGAUCAAAGUGAUGUUUUGAGUCCAGGACCGGGACAUUUGUUA [whbob_Ex_Tryp_B_w38]	88.9	74.8	81.2	73.5	113
UUUAUAUUGUCGGCCGCCACUGGAUUAAUAUUUGUAUAAUCUAGUUCAAAGUGAUGUUUUGAGUCCAGGACCGGGACAUUUGAUA [JR_Nu_ExcTryptoB_Sub029]	622	501	624	575	491
UUUCGGCUCUGAGGAUAUUCGGACAAAUAUAGUGAUGUUGUAUAAGGAGGAGGGUGUUGGCAGUGAGGAGAAGGCAGAGGAGGAU [#07 K4 FMN B Exclusion]	376	208	397	358	214
